These results are taken from article PMC12302927, “Lactate-functionalized 3D-printed PCL/nHA scaffold drives BMSC osteogenesis via metabolic-epigenetic crosstalk” (Materials Today Bio, 2025).

The target in assay [1] is T1, wild-type STAT1, overexpressed (pLVX-STAT1-WT), lactylated in BMSCs on the PCL/nHA/SL scaffold (UniProt P42224 1-750, lysine lactylation, elevated 2.4-fold on the scaffold (Klac 0.797 ± 0.105); K193 named as the key lactylation site).
T1 sequence (looked up): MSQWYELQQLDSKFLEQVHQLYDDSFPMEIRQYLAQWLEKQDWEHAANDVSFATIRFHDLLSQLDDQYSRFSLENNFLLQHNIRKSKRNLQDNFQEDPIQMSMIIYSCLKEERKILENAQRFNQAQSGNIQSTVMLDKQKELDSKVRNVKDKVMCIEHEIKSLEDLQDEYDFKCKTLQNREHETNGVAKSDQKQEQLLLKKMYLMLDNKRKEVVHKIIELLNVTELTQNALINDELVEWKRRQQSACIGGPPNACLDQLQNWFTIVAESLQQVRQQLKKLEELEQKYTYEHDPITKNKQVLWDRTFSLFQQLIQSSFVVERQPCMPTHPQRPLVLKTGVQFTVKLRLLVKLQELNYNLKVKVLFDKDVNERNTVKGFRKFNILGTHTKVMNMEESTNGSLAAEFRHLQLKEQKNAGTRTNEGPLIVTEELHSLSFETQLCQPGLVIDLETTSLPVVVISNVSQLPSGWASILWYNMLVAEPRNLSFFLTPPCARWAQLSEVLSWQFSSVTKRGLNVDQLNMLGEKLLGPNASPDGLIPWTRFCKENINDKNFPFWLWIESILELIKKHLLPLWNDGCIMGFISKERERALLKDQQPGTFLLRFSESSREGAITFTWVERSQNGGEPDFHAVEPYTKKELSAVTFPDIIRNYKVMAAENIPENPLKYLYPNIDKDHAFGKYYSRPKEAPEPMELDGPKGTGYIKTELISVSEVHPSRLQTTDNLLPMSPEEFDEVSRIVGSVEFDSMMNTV
The assay can be described thus: cell-based or functional assay.

For assay [2], the target named is T2, STAT1, endogenous in BMSCs (human (endogenous in BMSCs), UniProt P42224 1-750).
T2 construct: STAT1, endogenous in human bone marrow mesenchymal stem cells (ATCC PCS-500-012); STAT1 precipitated with anti-STAT1 antibody from scaffold-free Runx2-OE cells, which carry no STAT1 construct; source: endogenous, human BMSC lysate
T2 sequence (looked up): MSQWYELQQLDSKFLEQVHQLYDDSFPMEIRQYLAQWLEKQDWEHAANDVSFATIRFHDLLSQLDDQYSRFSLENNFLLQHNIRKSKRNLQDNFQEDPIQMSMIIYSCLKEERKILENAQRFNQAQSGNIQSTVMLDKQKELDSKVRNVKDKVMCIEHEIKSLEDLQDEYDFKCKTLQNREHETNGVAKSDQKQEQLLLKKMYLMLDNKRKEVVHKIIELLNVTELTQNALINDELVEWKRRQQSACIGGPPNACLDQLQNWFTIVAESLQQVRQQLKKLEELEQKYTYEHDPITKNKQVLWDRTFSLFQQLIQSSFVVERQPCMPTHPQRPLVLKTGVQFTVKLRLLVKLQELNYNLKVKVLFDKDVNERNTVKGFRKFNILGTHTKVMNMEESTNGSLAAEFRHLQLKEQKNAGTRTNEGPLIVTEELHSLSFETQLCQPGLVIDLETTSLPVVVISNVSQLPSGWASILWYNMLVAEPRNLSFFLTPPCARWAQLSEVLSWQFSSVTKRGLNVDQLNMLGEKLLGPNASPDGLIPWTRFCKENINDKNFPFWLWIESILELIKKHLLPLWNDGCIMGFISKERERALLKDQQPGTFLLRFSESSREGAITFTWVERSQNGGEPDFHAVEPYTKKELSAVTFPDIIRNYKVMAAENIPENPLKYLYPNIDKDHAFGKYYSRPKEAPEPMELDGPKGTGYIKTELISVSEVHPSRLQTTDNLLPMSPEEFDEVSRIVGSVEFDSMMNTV
In words: co-IP; BMSC lysates, no osteogenic induction, 48h post-transfection; STAT1 antibody for pull-down with IgG control, Protein A/G agarose; blots probed for lactylation and Runx2; cells scaffold-free or on PCL/nHA/SL scaffold; band intensities quantified. To be noted: partners not purified.

Assay [3] deals with T3, wild-type STAT1, overexpressed (pLVX-STAT1-WT), scaffold-free BMSCs (UniProt P42224 1-750).
T3 construct: STAT1, wild type; No tag is stated for this experiment (the rescue lentivirus of another experiment is HA-tagged); The anti-STAT1 antibody precipitates the endogenous STAT1 as well; Lactylation was low in these cells (0.327 ± 0.046); also called STAT1-OE; source: human BMSCs, lentiviral transduction (pLVX-STAT1-WT), scaffold-free, in lysate
T3 sequence (looked up): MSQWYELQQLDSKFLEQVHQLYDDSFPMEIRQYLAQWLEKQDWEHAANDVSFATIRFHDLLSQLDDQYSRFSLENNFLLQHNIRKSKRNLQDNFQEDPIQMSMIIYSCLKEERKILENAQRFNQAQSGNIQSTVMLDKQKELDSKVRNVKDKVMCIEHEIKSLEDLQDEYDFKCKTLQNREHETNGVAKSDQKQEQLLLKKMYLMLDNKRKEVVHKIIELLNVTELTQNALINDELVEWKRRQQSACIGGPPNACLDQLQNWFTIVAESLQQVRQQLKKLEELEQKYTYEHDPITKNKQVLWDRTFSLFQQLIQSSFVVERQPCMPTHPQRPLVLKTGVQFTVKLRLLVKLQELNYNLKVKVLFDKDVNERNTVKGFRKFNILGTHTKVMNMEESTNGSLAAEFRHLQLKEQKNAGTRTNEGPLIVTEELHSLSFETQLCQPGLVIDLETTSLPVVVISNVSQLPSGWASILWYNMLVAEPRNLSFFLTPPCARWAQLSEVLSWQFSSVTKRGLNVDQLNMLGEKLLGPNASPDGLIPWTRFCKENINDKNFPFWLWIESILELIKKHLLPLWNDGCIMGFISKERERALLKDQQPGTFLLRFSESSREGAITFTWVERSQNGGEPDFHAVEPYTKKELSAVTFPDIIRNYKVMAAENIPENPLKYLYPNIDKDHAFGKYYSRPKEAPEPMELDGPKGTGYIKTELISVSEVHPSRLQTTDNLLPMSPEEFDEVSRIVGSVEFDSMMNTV
The assay is described as above. To be noted: partners not purified.

For assay [4], the target named is T1, wild-type STAT1, overexpressed …. The assay is described as above. To be noted: partners not purified.

B1: Runx2, overexpressed (pLVX-Runx2) (natural protein, UniProt Q13950 1-521, looked up)
chain: MASNSLFSTVTPCQQNFFWDPSTSRRFSPPSSSLQPGKMSDVSPVVAAQQQQQQQQQQQQQQQQQQQQQQQEAAAAAAAAAAAAAAAAAVPRLRPPHDNRTMVEIIADHPAELVRTDSPNFLCSVLPSHWRCNKTLPVAFKVVALGEVPDGTVVTVMAGNDENYSAELRNASAVMKNQVARFNDLRFVGRSGRGKSFTLTITVFTNPPQVATYHRAIKVTVDGPREPRRHRQKLDDSKPSLFSDRLSDLGRIPHPSMRVGVPPQNPRPSLNSAPSPFNPQGQSQITDPRQAQSSPPWSYDQSYPSYLSQMTSPSIHSTTPLSSTRGTGLPAITDVPRRISDDDTATSDFCLWPSTLSKKSQAGASELGPFSDPRQFPSISSLTESRFSNPRMHYPATFTYTPPVTSGMSLGMSATTHYHTYLPPPYPGSSQSQSGPFQTSSTPYLYYGTSSGSYQFPMVPGGDRSPSRMLPPCTTTSNGSTLLNPNLPNQNDGVDADGSHSSSPTVLNSSGRMDESVWRPY
notes: Runx2; The anti-Runx2 blot also sees the endogenous Runx2 of the BMSCs; also called Runx2-OE; source: human BMSCs, lentiviral transduction (pLVX-Runx2), in lysate
As for B1, the “Osteocalcin protein (Western blot) in Runx2-OE + STAT1-OE BMSCs on the PCL/nHA/SL scaffold, rescued to STAT1-KD-like levels” value in assay [1] was determined as 0.474. For the same molecule, the “relative co-IP band intensity” value in assay [2] came to 0.582; in assay [3], 0.845; in assay [4] it was 0.286.
